The text below walks through data of patent publication US12440565.

This experiment deals with CD40 on the surface of mature dendritic cells (mDC) (human) (UniProt P25942). The experiment is described as follows: cell-based or functional assay.

Where only a bound is given, the exact number is not on record here.

Sequence of CD40 on the surface of mature dendritic cells (mDC) (human) (P25942 21-277): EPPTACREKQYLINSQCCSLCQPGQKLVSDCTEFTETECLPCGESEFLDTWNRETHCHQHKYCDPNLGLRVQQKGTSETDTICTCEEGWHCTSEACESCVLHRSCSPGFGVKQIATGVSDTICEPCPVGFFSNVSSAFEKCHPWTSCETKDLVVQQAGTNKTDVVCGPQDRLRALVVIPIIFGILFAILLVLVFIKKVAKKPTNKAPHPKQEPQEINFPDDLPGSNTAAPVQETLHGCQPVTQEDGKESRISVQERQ

B1: Cifurtilimab (antibody, INN chains, looked up, V domains shown)
VH: EVQLVESGGGLVQPGGSLRLSCAASGYSFTGYYIHWVRQAPGKGLEWVARVIPNAGGTSYNQKFKGRFTLSVDNSKNTAYLQMNSLRAEDTAVYYCAREGIYWWGQGTLVTVSS
VL: DIQMTQSPSSLSASVGDRVTITCRSSQSLVHSNGNTFLHWYQQKPGKAPKLLIYTVSNRFSGVPSRFSGSGSGTDFTLTISSLQPEDFATYFCSQTTHVPWTFGQGTKVEIK
On to B1, for which the CD83+ (%) of mDC at 0.001 µg/mL Cifurtilimab stood at 83.4%, the CD83+ (%) of mDC at 0.01 µg/mL Cifurtilimab stood at 84.6%, the CD83+ (%) of mDC at 0.1 µg/mL Cifurtilimab is 93.3% and the CD83+ (%) of mDC at 1 µg/mL Cifurtilimab is 94.1%. The CD83+ (%) of mDC at 3 µg/mL Cifurtilimab was determined as 95.7%; the CD83+ (%) of mDC at 10 µg/mL Cifurtilimab was 95.7%; the CD83+ (%) of mDC, agonist at 2 µg/mL (control group 81.00) was determined as 93.2%; the CD83+ (%), Cifurtilimab together with Atezolizumab, batch 1 (control with Atezolizumab alone 92.69) was 96.9%. The CD83+ (%), Cifurtilimab together with Atezolizumab, batch 2 (control with Atezolizumab alone 64.27) was 92.3%; the CD83+ (%), Cifurtilimab together with Atezolizumab, batch 3 (control with Atezolizumab alone 89.18) is 97.6%; the CD83+ (%), Cifurtilimab together with Atezolizumab, batch 4 (control with Atezolizumab alone 75.24) was found to be 96.1%; the IL-12p70 (pg/mL) at 0.001 µg/mL Cifurtilimab turned out to be 10.2 pg/mL. Moreover, the IL-12p70 (pg/mL) at 0.01 µg/mL Cifurtilimab stood at 10 pg/mL, the IL-12p70 (pg/mL) at 0.1 µg/mL Cifurtilimab came to 309 pg/mL, the IL-12p70 (pg/mL) at 1 µg/mL Cifurtilimab worked out at 312 pg/mL and the IL-12p70 (pg/mL) at 3 µg/mL Cifurtilimab was found to be 397 pg/mL. Also, the IL-12p70 (pg/mL) at 10 µg/mL Cifurtilimab is 402 pg/mL; the IL-12p70 (pg/mL), Cifurtilimab together with Atezolizumab, batch 1 (control with Atezolizumab alone 4.1) came out at 450 pg/mL; the IL-12p70 (pg/mL), Cifurtilimab together with Atezolizumab, batch 2 (control with Atezolizumab alone 4.8) was found to be 1220 pg/mL; the IL-12p70 (pg/mL), Cifurtilimab together with Atezolizumab, batch 3 (control with Atezolizumab alone 5.7) turned out to be 1110 pg/mL. This molecule also had an IL-12p70 (pg/mL), Cifurtilimab together with Atezolizumab, batch 4 (control with Atezolizumab alone 5.0) of 454 pg/mL; an IL-12p70 (pg/mL), agonist at 2 µg/mL (control group 50.0) of 1490 pg/mL; a functional and activity indices of mDC (CD83, IL-12, T cell activation) against antibody concentration above 0.1 µg/mL; an increase of IFN-γ secreting T cells over control, Cifurtilimab together with Atezolizumab of 21.8%. For the same molecule, the increase rate of CD83 positive ratio over control, Cifurtilimab together with Atezolizumab was found to be 19.1%; the mean CD83+ cells (%), Cifurtilimab together with Atezolizumab (control 80.35%) came out at 95.7%; the mean IL-12 secretion, Cifurtilimab together with Atezolizumab (control 4.9 pg/mL) was 746 pg/mL.

B2: Mitazalimab (antibody, INN chains, looked up, V domains shown)
VH: EVQLLESGGGLVQPGGSLRLSCAASGFTFSTYGMHWVRQAPGKGLEWLSYISGGSSYIFYADSVRGRFTISRDNSENALYLQMNSLRAEDTAVYYCARILRGGSGMDLWGQGTLVTVSS
VL: QSVLTQPPSASGTPGQRVTISCTGSSSNIGAGYNVYWYQQLPGTAPKLLIYGNINRPSGVPDRFSGSKSGTSASLAISGLRSEDEADYYCAAWDKSISGLVFGGGTKLTVL
As for B2, the CD83+ (%) of mDC, agonist at 2 µg/mL (control group 81.00) is 95.7% and the IL-12p70 (pg/mL), agonist at 2 µg/mL (control group 50.0) is 1470 pg/mL.
